The record followed here is patent US20220119472A1 (ORIONIS BIOSCIENCES, published 2022).

Experiment [1] addresses T1, recombinant His6-tagged extracellular domain of human Clec4C (C-type lectin domain family 4, member C) (human, UniProt Q8WTT0 44-213).
T1 construct: Same antigen for immunisation, panning and ELISA; also called His-Clec4C(EC); pMET7-SIgK-His-Clec4C(EC)
T1 sequence: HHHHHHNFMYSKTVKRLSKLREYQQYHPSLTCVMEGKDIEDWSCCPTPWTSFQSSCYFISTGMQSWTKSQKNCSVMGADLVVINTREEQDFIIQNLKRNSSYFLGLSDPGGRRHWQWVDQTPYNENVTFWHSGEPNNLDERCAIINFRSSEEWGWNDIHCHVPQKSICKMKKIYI
As to the kind of experiment: ELISA, TG1 periplasmic extract on coated antigen. An excerpt:
(§1) In total, 190 colonies from rounds 1 and 2 were randomly selected and analyzed by ELISA for the presence of antigen-specific VHH in their periplasmic extracts (ELISA using crude periplasmic extracts from TG1 cultures including soluble VHH). The antigen used for ELISA screening was the same as the one used for immunization, using uncoated blocked wells as negative control.
(In an ELISA, binding on a coated surface is turned into a signal by an enzyme label.)

Experiment [2] addresses T1, recombinant His6-tagged extracellular …. Description: ELISA, antigen-coated vs uncoated blocked wells.
From the text: as §1

Positions count from the first letter of the chain named.

B1: 2CL59 (VHH)
VHH: QVQLQESGGGLVQPGDSLTLSCADSGRTFSNYAMGWFHQAPGKEREFVAAISTSGGSTAYADSVKGRFTISRDNAKNTVYLQMNNLKPEDTAVYYCAARLSFSGSSYYQGPLQYPYWGQGTQVTVSS
notes: pMECS VHH-HA-His6; TG1 periplasmic extract
Regarding B1, in experiment [1], the ELISA coated was determined as 3.76. Moreover, in experiment [2], the ELISA ratio coated/uncoated came out at 3.98.

B2: 2CL72 (VHH)
VHH: QVQLQESGGGLVQPGGSLKLSCAASGSTFRHHAMAWFRQTPGKEREFVSAINDHGDRTKYLDSVRGRFTISRDNTDNMVYLQMSDLRPEDTAVYSCAAGPLVDYLETTPLVYTYWGQGTQVTVSS
notes: as for B1
With B2, the ELISA coated in experiment [1] was 3.63. Further, the ELISA ratio coated/uncoated in experiment [2] came to 21.5.

B3: 2CL90 (VHH)
VHH: B2 VHH with P14A, K19R, E44G
notes: as for B1
With B3, the ELISA coated in experiment [1] amounted to 4. Also, in experiment [2], the ELISA ratio coated/uncoated was found to be 7.54.

B4: 2CL88 (VHH)
VHH: B2 VHH with A23T, A24G, S49A, V93N
notes: as for B1
Consider B4, for which the ELISA coated in experiment [1] amounted to 4. The ELISA ratio coated/uncoated in experiment [2] turned out to be 12.2.

B5: 2CL87 (VHH)
VHH: B2 VHH with K19R, A24G, L61T
notes: as for B1
For the molecule B5, the ELISA coated in experiment [1] came to 1.62. Besides, the ELISA ratio coated/uncoated in experiment [2] stood at 11.5.

B6: 2CL78 (VHH)
VHH: B2 VHH with L11V, N74D, P88T, S95T
notes: as for B1
For B6, the ELISA coated in experiment [1] amounted to 3.75. Besides, in experiment [2], the ELISA ratio coated/uncoated worked out at 32.7.

B7: 2CL95 (VHH)
VHH: B2 VHH with A24G, R30K, Q39H, L61S, S71A, S84D, R87L, V93N, S95T
notes: as for B1
Turning to B7, the ELISA coated in experiment [1] worked out at 4. Also, the ELISA ratio coated/uncoated in experiment [2] came to 23.2.

B8: 2CL41 (VHH)
VHH: B2 VHH with P14A, K19R, P88T, S95T
notes: as for B1
With B8, the ELISA coated in experiment [1] turned out to be 4. Besides, the ELISA ratio coated/uncoated in experiment [2] worked out at 20.9.

B9: 1CL25 (VHH)
VHH: B2 VHH with K19R, Q82L
notes: as for B1
B9: the ELISA coated in experiment [1] amounted to 4. Besides, in experiment [2], the ELISA ratio coated/uncoated was 5.81.

B10: 1CL2 (VHH)
VHH: QVQLQESGGGLVQAGDSLRLSCAASGDTFSMYAMGWFRQAPGKEREFVAAISRSGGSTDYRDSVKGRFTISRDNDLNAGYLQMNSLKPEDTAVYYCALRLTFSTTTAYTGELQYPYWGQGTQVTVSS
notes: as for B1
Take B10: the ELISA coated in experiment [1] stood at 3.74. Also, the ELISA ratio coated/uncoated in experiment [2] was 4.36.

B11: 2CL58 (VHH)
VHH: B10 VHH with G56S, D59N, A107T
notes: as for B1
For the molecule B11, the ELISA coated in experiment [1] was 2.24. Further, the ELISA ratio coated/uncoated in experiment [2] worked out at 4.66.

B12: 1CL32 (VHH)
VHH: B10 VHH with A33T, D59N
notes: as for B1
For the molecule B12, the ELISA coated in experiment [1] came to 3.22. Further, the ELISA ratio coated/uncoated in experiment [2] was determined as 9.9.

B13: 2CL73 (VHH)
VHH: B10 VHH with D27N, D59N, S85N, T106D, E111K
notes: as for B1
In the case of B13, the ELISA coated in experiment [1] turned out to be 2.43. The ELISA ratio coated/uncoated in experiment [2] amounted to 4.93.

B14: 2CL21 (VHH)
VHH: QVQLQESGGGLVQAGGSLRLSCAASGRTFTGYAMGWFRQVPGLEREFVARISRSGNSTGYADSVKGRFTVSRDNAKSTMYLQMNSLKTEDTAVYYCAATTSWLPGHNANVYDYWGQGTQVTVSS
notes: as for B1
With B14, in experiment [1], the ELISA coated worked out at 3.89. Moreover, the ELISA ratio coated/uncoated in experiment [2] is 4.23.

B15: 2CL71 (VHH)
VHH: QVQLQESGGGLVQAGGSLRLSCAASGLTFGRYAMGWFRQVPGLEREFIARISRSGDNTGYADSVKGRFTVSRDSAKSTVYLQMNSLKTEDTAVYYCAAGTSWVPGHNANAYDYWGQGTQVTVSS
notes: as for B1
As to B15, in experiment [1], the ELISA coated stood at 4. Moreover, the ELISA ratio coated/uncoated in experiment [2] is 5.33.

B16: 2CL30 (VHH)
VHH: B14 VHH with L11S, T30S, G31D, N56D, S77N, M79V
notes: as for B1
Regarding B16, in experiment [1], the ELISA coated is 3.79. For the same molecule, the ELISA ratio coated/uncoated in experiment [2] was determined as 8.28.

B17: 1CL47 (VHH)
VHH: QVQLQESGGGLVQAGGSRRLSCAASGRTFINYAMGWFRQAPGKEREFVAAISTSGSNTYLADSLKARFTISRDNAKNTVYLQIRSLNPEDTAVYYCAARLSFDDSAYYTSTLRYAYWGQGTQVTVSS
notes: as for B1
In the case of B17, the ELISA coated in experiment [1] was determined as 4. In addition, the ELISA ratio coated/uncoated in experiment [2] came to 9.79.

B18: 2CL7 (VHH)
VHH: QVQLQESGGGLVQAGDSLRLSCAPSGFTFDGYAIGWFRQAPGKEREKVACINKSDGLTYYEDSVKGRFTISSDTAKNTIHLQMNSLKPDDTAVYYCAAAWECDYAPADFGSWGQGTQVTVSS
notes: as for B1
Take B18: in experiment [1], the ELISA coated was 0.664. Further, the ELISA ratio coated/uncoated in experiment [2] is 6.57.

B19: 2CL18 (VHH)
VHH: B18 VHH with D16G
notes: as for B1
Consider B19, for which, in experiment [1], the ELISA coated turned out to be 0.491. Besides, the ELISA ratio coated/uncoated in experiment [2] was determined as 4.74.

B20: 2CL26 (VHH)
VHH: QVQLQESGGGWVQPGDSLRLSCAASGFTFSDYAVGWFRQAPGKEREFVARITRLGNGPYYSASVKGRFTISRDNARDMAYLKMDALTPEDTATYYCAAGRTLASTHDTKTSPQTYDYWGLGTQVTVSS
notes: as for B1
Regarding B20, the ELISA coated in experiment [1] was found to be 4. In addition, the ELISA ratio coated/uncoated in experiment [2] stood at 21.4.

B21: 2CL55 (VHH)
VHH: B20 VHH with F27S, L120Q
notes: as for B1
As for B21, in experiment [1], the ELISA coated came to 1.7. In addition, the ELISA ratio coated/uncoated in experiment [2] was determined as 15.

B22: 2CL43 (VHH)
VHH: QVQLQESGGGTVQPGESLRLSCEVSTDTFSSLAMAWFRQATGKDREFVAAISWSGASTVYGDSVKGRFTMTRDHPKKMVYLQMDNLKPEDTAVYYCAGDLDGRTWHGDDLEYDYWGQGTQVTVSS
notes: as for B1
Regarding B22, the ELISA coated in experiment [1] came to 2.64. In experiment [2], the ELISA ratio coated/uncoated is 12.1.

B23: 2CL82 (VHH)
VHH: B22 VHH with T11L, E16G, D44E
notes: as for B1
B23: in experiment [1], the ELISA coated was 2.68. In addition, in experiment [2], the ELISA ratio coated/uncoated worked out at 9.74.

B24: 2CL89 (VHH)
VHH: B22 VHH with G42A, A56D
notes: as for B1
Take B24: the ELISA coated in experiment [1] was 1.31. In addition, in experiment [2], the ELISA ratio coated/uncoated turned out to be 10.7.

B25: 1CL54 (VHH)
VHH: QVQLQESGGGLAQAGASLRLSCAGSGNNFEHYAVAWFRQDAPGKERDFVAAIRDYGDRTRYDDSVKGRFTISRDNAKSMVYLEMNNLKPKDAAVYYCAAGPLNDYLEVTPLVYTYWGQGTQVTVSS
notes: as for B1
B25: the ELISA coated in experiment [1] worked out at 1.88. Further, the ELISA ratio coated/uncoated in experiment [2] came out at 17.

B26: 2CL52 (VHH)
VHH: B25 VHH with D40E, D62A, K90E, A92T, A98T
notes: as for B1
Take B26: the ELISA coated in experiment [1] is 1.65. The ELISA ratio coated/uncoated in experiment [2] was determined as 7.07.

B27: 2CL84 (VHH)
VHH: QVQLQESGGGSVQAGGSLRLSCAASGRTFSDYAMGWFRQAPGKEREFVATISKSGSSTDYADSAKGRFTISRDNAKKTVYLQINSLKTEDTAVYYCAARLSFDNTAFYTSAIRYSDWGQGTQVTVSS
notes: as for B1
Regarding B27, the ELISA coated in experiment [1] was 3.86. In addition, in experiment [2], the ELISA ratio coated/uncoated was 18.2.

B28: 2CL92 (VHH)
VHH: B27 VHH with G16D, D31G, K53T, D59Y, A64V, T78S, T91A, D116Y
notes: as for B1
In the case of B28, in experiment [1], the ELISA coated was found to be 3.89. Moreover, the ELISA ratio coated/uncoated in experiment [2] is 11.4.

B29: 1CL48 (VHH)
VHH: QVQLQESGGGLVQPGGSLRLSCVGSGSTFRHHAMAWFRQTAGKEREFVSAINNHGTKTRYSDSVRGRFTISRDNDENMVYLQMDNLRPEDTAVYSCAAGPLVDYLETVPVVYTYWGQGTQVTVSS
notes: as for B1
As for B29, the ELISA coated in experiment [1] was determined as 3.85. Moreover, the ELISA ratio coated/uncoated in experiment [2] was determined as 7.83.

B30: 2CL4 (VHH)
VHH: B29 VHH with L20I, V23A, N53D, P88S, V93N, S95T
notes: as for B1
With B30, in experiment [1], the ELISA coated stood at 2.8. For the same molecule, the ELISA ratio coated/uncoated in experiment [2] stood at 31.3.

B31: 2CL8 (VHH)
VHH: B29 VHH with R19K, V23A, M34L, G42E, N53D, E76G
notes: as for B1
Take B31: in experiment [1], the ELISA coated came to 1.81. Besides, the ELISA ratio coated/uncoated in experiment [2] amounted to 15.7.

B32: 1CL21 (VHH)
VHH: B29 VHH with Q13R, A41T, N53D
notes: as for B1
Regarding B32, in experiment [1], the ELISA coated is 3.79. Moreover, in experiment [2], the ELISA ratio coated/uncoated stood at 11.1.

B33: 1CL82 (VHH)
VHH: QVQLQESGGGSVQAGDSLRLSCVAPGREISSPAMGWFRQAPGKEREFVATINWSSGATLTADSVKGRFTIFKDVEKNTVYLQMNSLRPEDTAVYSCAAGATGVFRIARAYSYWGQGTQVTVSS
notes: as for B1
B33: the ELISA coated in experiment [1] is 3.01. For the same molecule, the ELISA ratio coated/uncoated in experiment [2] was 6.23.
